{"source": "paper PMC9352680", "about": "“A comprehensive thermodynamic model for RNA binding by the Saccharomyces cerevisiae Pumilio protein PUF4”", "data": [{"molecular_target": "T1, PUF4 RNA-binding domain (Saccharomyces cerevisiae, UniProt P25339 537-888)", "T1 sequence": "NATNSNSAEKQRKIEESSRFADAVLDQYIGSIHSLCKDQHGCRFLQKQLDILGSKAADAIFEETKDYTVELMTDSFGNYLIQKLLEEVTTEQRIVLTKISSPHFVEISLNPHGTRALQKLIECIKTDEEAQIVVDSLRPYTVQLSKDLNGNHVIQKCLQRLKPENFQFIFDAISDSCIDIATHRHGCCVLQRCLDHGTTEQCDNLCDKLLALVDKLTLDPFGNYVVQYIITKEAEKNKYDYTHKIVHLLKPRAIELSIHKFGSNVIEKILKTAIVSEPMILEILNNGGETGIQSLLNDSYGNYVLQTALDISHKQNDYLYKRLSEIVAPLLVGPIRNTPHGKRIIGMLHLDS", "test": "Mg; RNA-MaP; 20 mM Na-HEPES pH 7.4, 30 mM KOAc, 0.75 mM MgCl2, 0.1% Tween-20, 5% glycerol, 0.1 mg/mL BSA, 2 mM DTT; 25 C; 0.0125-409.6 nM protein", "details": "tags: N-His6-TEV cleaved; C-SNAP kept, Cy3B-labelled; label: tethered on chip by stalled RNA polymerase", "units": {"Kd": "nM"}, "values": [{"binder": "UCUCUUUAUAUAUAUACAUCUCUU (ssRNA)", "note": "[Id_ii_S1_P3E.3_K3.2_C3.2_[C-2T]_[T-1A]_H3.2_A3.1_F3.1_T3.2_[T9C]]", "Kd": 384}, {"binder": "UCUCUUAAUAUAUAUAGCUCUCUU (ssRNA)", "note": "[Id_ii_S1_P3E.3_K3.2_C3.2_[C-2A]_[T-1A]_H3.2_A3.1_F3.1_T3.2_[T9G]_[A10C]]", "Kd": 633}, {"binder": "UCUCUUUUUAUAUAUAUCUCUCUU (ssRNA)", "note": "[Id_ii_S1_P3E.3_K3.2_C3.2_[C-2T]_H3.2_A3.1_F3.1_T3.2_[A10C]]", "Kd": 759}, {"binder": "UCUCUUUUUAUAUAUAGCUCUCUU (ssRNA)", "note": "[Id_ii_S1_P3E.3_K3.2_C3.2_[C-2T]_H3.2_A3.1_F3.1_T3.2_[T9G]_[A10C]]", "Kd": 490}, {"binder": "UCUCUUAGUAUUUUAUCUCUU (ssRNA)", "note": "[Ib_S1_P4E.1_K4.1_C4.1_H4.1_[T1A]_A4.1_[A6T]_F4.1_T4.1]", "Kd": 798}, {"binder": "UCUCUUUAUAUAUAUAUUUCUCUU (ssRNA)", "note": "[Id_ii_S1_P3E.3_K3.2_C3.2_[C-2T]_[T-1A]_H3.2_A3.1_F3.1_T3.2_[A10T]]", "Kd": 329}, {"binder": "UCUCUUAGUAUGUUAUCUCUU (ssRNA)", "note": "[Ib_S1_P4E.1_K4.1_C4.1_H4.1_[T1A]_A4.1_[A6G]_F4.1_T4.1]", "Kd": 1080}, {"binder": "UCUCUUAAUAUAUAUAUUUCUCUU (ssRNA)", "note": "[Id_ii_S1_P3E.3_K3.2_C3.2_[C-2A]_[T-1A]_H3.2_A3.1_F3.1_T3.2_[A10T]]", "Kd": 972}, {"binder": "UCUCUUACUAUAUAUACUUCUCUU (ssRNA)", "note": "[Id_ii_S1_P3E.3_K3.2_C3.2_[C-2A]_[T-1C]_H3.2_A3.1_F3.1_T3.2_[T9C]_[A10T]]", "Kd": 918}, {"binder": "UCUCUUAUUAUAUAUAGCUCUCUU (ssRNA)", "note": "[Id_ii_S1_P3E.3_K3.2_C3.2_[C-2A]_H3.2_A3.1_F3.1_T3.2_[T9G]_[A10C]]", "Kd": 1310}, {"binder": "UCUCUUAGUAUAUAUACCUCUCUU (ssRNA)", "note": "[Id_ii_S1_P3E.3_K3.2_C3.2_[C-2A]_[T-1G]_H3.2_A3.1_F3.1_T3.2_[T9C]_[A10C]]", "Kd": 954}, {"binder": "UCUCUUUUUAUAUAUAUAUCUCUU (ssRNA)", "note": "[Id_ii_S1_P3E.3_K3.2_C3.2_[C-2T]_H3.2_A3.1_F3.1_T3.2]", "Kd": 510}, {"binder": "UCUCUUUUUAUAUAUAUUUCUCUU (ssRNA)", "note": "[Id_ii_S1_P3E.3_K3.2_C3.2_[C-2T]_H3.2_A3.1_F3.1_T3.2_[A10T]]", "Kd": 457}, {"binder": "UCUCUUAAUAUAUAUAGUUCUCUU (ssRNA)", "note": "[Id_ii_S1_P3E.3_K3.2_C3.2_[C-2A]_[T-1A]_H3.2_A3.1_F3.1_T3.2_[T9G]_[A10T]]", "Kd": 458}, {"binder": "UCUCUUACUAUAUAUAUCUCUCUU (ssRNA)", "note": "[Id_ii_S1_P3E.3_K3.2_C3.2_[C-2A]_[T-1C]_H3.2_A3.1_F3.1_T3.2_[A10C]]", "Kd": 886}, {"binder": "UCUCUUAUUAUAUAUAAUUCUCUU (ssRNA)", "note": "[Id_ii_S1_P3E.3_K3.2_C3.2_[C-2A]_H3.2_A3.1_F3.1_T3.2_[T9A]_[A10T]]", "Kd": 814}, {"binder": "UCUCUUAUUAUAUAUACUUCUCUU (ssRNA)", "note": "[Id_ii_S1_P3E.3_K3.2_C3.2_[C-2A]_H3.2_A3.1_F3.1_T3.2_[T9C]_[A10T]]", "Kd": 528}, {"binder": "UCUCUUAUUAUAUAUAUAUCUCUU (ssRNA)", "note": "[Id_ii_S1_P3E.3_K3.2_C3.2_[C-2A]_H3.2_A3.1_F3.1_T3.2]", "Kd": 424}, {"binder": "UCUCUUUCUACAUUAUCUCUU (ssRNA)", "note": "[Ib_S1_P4E.1_K4.1_C4.1_H4.1_[G2C]_A4.1_[T5C]_F4.1_T4.1]", "Kd": 1450}, {"binder": "UCUCUUACUAUAUAUAGCUCUCUU (ssRNA)", "note": "[Id_ii_S1_P3E.3_K3.2_C3.2_[C-2A]_[T-1C]_H3.2_A3.1_F3.1_T3.2_[T9G]_[A10C]]", "Kd": 2200}, {"binder": "UCUCUUUAUAUAUAUAUCUCUCUU (ssRNA)", "note": "[Id_ii_S1_P3E.3_K3.2_C3.2_[C-2T]_[T-1A]_H3.2_A3.1_F3.1_T3.2_[A10C]]", "Kd": 370}, {"binder": "UCUCUUUAUAUAUAUAGCUCUCUU (ssRNA)", "note": "[Id_ii_S1_P3E.3_K3.2_C3.2_[C-2T]_[T-1A]_H3.2_A3.1_F3.1_T3.2_[T9G]_[A10C]]", "Kd": 148}, {"binder": "UCUCUUAGUAUAUAUAAAUCUCUU (ssRNA)", "note": "[Id_ii_S1_P3E.3_K3.2_C3.2_[C-2A]_[T-1G]_H3.2_A3.1_F3.1_T3.2_[T9A]]", "Kd": 877}, {"binder": "UCUCUUACUAUAUAUACCUCUCUU (ssRNA)", "note": "[Id_ii_S1_P3E.3_K3.2_C3.2_[C-2A]_[T-1C]_H3.2_A3.1_F3.1_T3.2_[T9C]_[A10C]]", "Kd": 848}, {"binder": "UCUCUUAAUAUAUAUACGUCUCUU (ssRNA)", "note": "[Id_ii_S1_P3E.3_K3.2_C3.2_[C-2A]_[T-1A]_H3.2_A3.1_F3.1_T3.2_[T9C]_[A10G]]", "Kd": 1980}, {"binder": "UCUCUUAAUAUAUAUACUUCUCUU (ssRNA)", "note": "[Id_ii_S1_P3E.3_K3.2_C3.2_[C-2A]_[T-1A]_H3.2_A3.1_F3.1_T3.2_[T9C]_[A10T]]", "Kd": 344}, {"binder": "UCUCUUUUUAUAUAUACUUCUCUU (ssRNA)", "note": "[Id_ii_S1_P3E.3_K3.2_C3.2_[C-2T]_H3.2_A3.1_F3.1_T3.2_[T9C]_[A10T]]", "Kd": 708}, {"binder": "UCUCUUUCUAUAUAUAUUUCUCUU (ssRNA)", "note": "[Id_ii_S1_P3E.3_K3.2_C3.2_[C-2T]_[T-1C]_H3.2_A3.1_F3.1_T3.2_[A10T]]", "Kd": 591}, {"binder": "UCUCUUUGUAUUUUAUCUCUU (ssRNA)", "note": "[Ic_S1_P4E.1_K4.1_C4.1_H4.1_A4.1_[A6T]_F4.1_T4.1]", "Kd": 2.46}, {"binder": "UCUCUUAUUAUAUAUACAUCUCUU (ssRNA)", "note": "[Id_ii_S1_P3E.3_K3.2_C3.2_[C-2A]_H3.2_A3.1_F3.1_T3.2_[T9C]]", "Kd": 599}, {"binder": "UCUCUUAUUAUAUAUAGUUCUCUU (ssRNA)", "note": "[Id_ii_S1_P3E.3_K3.2_C3.2_[C-2A]_H3.2_A3.1_F3.1_T3.2_[T9G]_[A10T]]", "Kd": 544}, {"binder": "UCUCUUAAUAUAUAUACAUCUCUU (ssRNA)", "note": "[Id_ii_S1_P3E.3_K3.2_C3.2_[C-2A]_[T-1A]_H3.2_A3.1_F3.1_T3.2_[T9C]]", "Kd": 886}]}]}
